Biological target: T1, MCT1 (monocarboxylate transporter 1), endogenous (human), P53985
T1 chain: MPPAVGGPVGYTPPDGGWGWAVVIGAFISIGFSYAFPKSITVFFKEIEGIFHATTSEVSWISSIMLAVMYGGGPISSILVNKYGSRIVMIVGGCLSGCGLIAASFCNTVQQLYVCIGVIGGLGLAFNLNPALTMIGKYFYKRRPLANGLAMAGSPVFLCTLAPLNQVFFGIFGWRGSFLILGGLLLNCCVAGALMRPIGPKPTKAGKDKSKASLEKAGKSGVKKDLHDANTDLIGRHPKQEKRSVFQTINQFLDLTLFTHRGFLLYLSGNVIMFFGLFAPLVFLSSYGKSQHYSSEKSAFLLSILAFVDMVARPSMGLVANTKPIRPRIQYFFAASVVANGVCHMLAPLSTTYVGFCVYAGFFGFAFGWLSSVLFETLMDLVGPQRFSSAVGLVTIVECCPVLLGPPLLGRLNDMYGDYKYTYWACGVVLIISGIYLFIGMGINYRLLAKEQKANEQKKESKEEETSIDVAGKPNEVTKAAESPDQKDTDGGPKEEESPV
Test: tandem affinity purification of CRBN-SF, mass spectrometry
Conditions: remark: other sources report otherwise

- unique peptides identified in the screen (unique peptides): 6
B1: Strep-Flag tagged CRBN (CRBN-SF), Q96SW2 1-442 (protein, human, UniProt Q96SW2 1-442, looked up, not shown: small tags and cut ends)
chain: MAGEGDQQDAAHNMGNHLPLLPAESEEEDEMEVEDQDSKEAKKPNIINFDTSLPTSHTYLGADMEEFHGRTLHDDDSCQVIPVLPQVMMILIPGQTLPLQLFHPQEVSMVRNLIQKDRTFAVLAYSNVQEREAQFGTTAEIYAYREEQDFGIEIVKVKAIGRQRFKVLELRTQSDGIQQAKVQILPECVLPSTMSAVQLESLNKCQIFPSKPVSREDQCSYKWWQKYQKRKFHCANLTSWPRWLYSLYDAETLMDRIKKQLREWDENLKDDSLPSNPIDFSYRVAACLPIDDVLRIQLLKIGSAIQRLRCELDIMNKCTSLCCKQCQETEITTKNEIFSLSLCGPMAAYVNPHGYVHETLTVYKACNLNLIGRPSTEHSWFPGYAWTVAQCKICASHIGWKFTATKKDMSPQKFWGLTRSALLPTIPDTEDEISPDKVILCL

— patent US20170296524A1
